# Laboratory results: the supplement of paper PMC11246515
# ± gives the standard deviation of the averaged measurements.
# Test: total protein half-life in vivo (active degradation + dilution); higher = more stable protein
# [1] = E. coli NCM3722 delta-clpP delta-lon delta-hslV, growth: N-lim chemostat, doubling time 6 h
# [2] = E. coli NCM3722 delta-clpP, growth: N-lim chemostat, doubling time 6 h
# [3] = E. coli NCM3722 delta-hslV, growth: N-lim chemostat, doubling time 6 h
# [4] = E. coli NCM3722 delta-lon, growth: N-lim chemostat, doubling time 6 h
# [5] = E. coli NCM3722 delta-smpB, growth: N-lim chemostat, doubling time 6 h
# [6] = wild type E. coli NCM3722, growth: C-lim chemostat, doubling time 6 h
# [7] = wild type E. coli NCM3722, growth: C-lim chemostat, doubling time 12 h
# [8] = wild type E. coli NCM3722, growth: N-lim chemostat, doubling time 6 h
# [9] = wild type E. coli NCM3722, growth: N-lim chemostat, doubling time 12 h
# [10] = wild type E. coli NCM3722, growth: P-lim chemostat, doubling time 6 h
# [11] = wild type E. coli NCM3722, growth: P-lim chemostat, doubling time 12 h
# [12] = wild type E. coli NCM3722, growth: C-lim chemostat, doubling time 3 h
Sequence,total protein half-life in vivo [1],total protein half-life in vivo [2],total protein half-life in vivo [3],total protein half-life in vivo [4],total protein half-life in vivo [5],total protein half-life in vivo [6],total protein half-life in vivo [7],total protein half-life in vivo [8],total protein half-life in vivo [9],total protein half-life in vivo [10],total protein half-life in vivo [11],total protein half-life in vivo [12]
MMSTTLFKDFTFEAAHRLPHVPEGHKCGRLHGHSFMVRLEITGEVDPHTGWIIDFAELKAAFKPTYERLDHHYLNDIPGLENPTSEVLAKWIWDQVKPVVPLLSAVMVKETCTAGCIYRGE,4.72 ± 1 h,6.75 ± 0.54 h,5.07 h,6.5 ± 0.67 h,5.53 ± 0.14 h,6.53 ± 0.12 h,12.7 ± 0.82 h,7.08 h,13.1 ± 1.2 h,6.75 ± 0.27 h,13.2 h,
MDRVLHFVLALAVVAILALLVSSDRKKIRIRYVIQLLVIEVLLAWFFLNSDVGLGFVKGFSEMFEKLLGFANEGTNFVFGSMNDQGLAFFFLKVLCPIVFISALIGILQHIRVLPVIIRAIGFLLSKVNGMGKLESFNAVSSLILGQSENFIAYKDILGKISRNRMYTMAATAMSTVSMSIVGAYMTMLEPKYVVAALVLNMFSTFIVLSLINPYRVDASEENIQMSNLHEGQSFFEMLGEYILAGFKVAIIVAAMLIGFIALIAALNALFATVTGWFGYSISFQGILGYIFYPIAWVMGVPSSEALQVGSIMATKLVSNEFVAMMDLQKIASTLSPRAEGIISVFLVSFANFSSIGIIAGAVKGLNEEQGNVVSRFGLKLVYGSTLVSVLSASIAALVL [P0AFF2],7.07 ± 0.54 h,6.45 ± 0.078 h,6.09 ± 0.15 h,5.82 ± 0.35 h,6.04 ± 0.57 h,6.32 ± 0.029 h,,6.36 ± 0.65 h,9.54 ± 3.4 h,5.57 h,13 ± 0.8 h,3.61 ± 0.038 h
MSKSTAEIRQAFLDFFHSKGHQVVASSSLVPHNDPTLLFTNAGMNQFKDVFLGLDKRNYSRATTSQRCVRAGGKHNDLENVGYTARHHTFFEMLGNFSFGDYFKHDAIQFAWELLTSEKWFALPKERLWVTVYESDDEAYEIWEKEVGIPRERIIRIGDNKGAPYASDNFWQMGDTGPCGPCTEIFYDHGDHIWGGPPGSPEEDGDRYIEIWNIVFMQFNRQADGTMEPLPKPSVDTGMGLERIAAVLQHVNSNYDIDLFRTLIQAVAKVTGATDLSNKSLRVIADHIRSCAFLIADGVMPSNENRGYVLRRIIRRAVRHGNMLGAKETFFYKLVGPLIDVMGSAGEDLKRQQAQVEQVLKTEEEQFARTLERGLALLDEELAKLSGDTLDGETAFRLYDTYGFPVDLTADVCRERNIKVDEAGFEAAMEEQRRRAREASGFGADYNAMIRVDSASEFKGYDHLELNGKVTALFVDGKAVDAINAGQEAVVVLDQTPFYAESGGQVGDKGELKGANFSFAVEDTQKYGQAIGHIGKLAAGSLKVGDAVQADVDEARRARIRLNHSATHLMHAALRQVLGTHVSQKGSLVNDKVLRFDFSHNEAMKPEEIRAVEDLVNTQIRRNLPIETNIMDLEAAKAKGAMALFGEKYDERVRVLSMGDFSTELCGGTHASRTGDIGLFRIISESGTAAGVRRIEAVTGEGAIATVHADSDRLSEVAHLLKGDSNNLADKVRSVLERTRQLEKELQQLKEQAAAQESANLSSKAIDVNGVKLLVSELSGVEPKMLRTMVDDLKNQLGSTIIVLATVVEGKVSLIAGVSKDVTDRVKAGELIGMVAQQVGGKGGGRPDMAQAGGTDAAALPAALASVKGWVSAKLQ,5.338 ± 0.0061 h,5.33 ± 0.19 h,5.65 ± 0.48 h,5.67 ± 0.09 h,5.06 ± 0.068 h,6.01 ± 0.44 h,11 ± 0.2 h,5.11 ± 0.11 h,9.15 ± 0.27 h,6.2 ± 0.075 h,11.9 ± 0.62 h,3.04 ± 0.14 h
MKKAIAYMRFSSPGQMSGDSLNRQRRLIAEWLKVNSDYYLDTITYEDLGLSAFKGKHAQSGAFSEFLDAIEHGYILPGTTLLVESLDRLSREKVGEAIERLKLILNHGIDVITLCDNTVYNIDSLNEPYSLIKAILIAQRANEESEIKSSRVKLSWKKKRQDALESGTIMTASCPRWLSLDDKRTAFVPDPDRVKTIELIFKLRMERRSLNAIAKYLNDHAVKNFSGKESAWGPSVIEKLLANKALIGICVPSYRARGKGISEIAGYYPRVISDDLFYAVQEIRLAPFGISNSSKNPMLINLLRTVMKCEACGNTMIVHAVSGSLHGYYVCPMRRLHRCDRPSIKRDLVDYNIINELLFNCSKIQPVENKKDANETLELKIIELQMKINNLIVALSVAPEVTAIAEKIRLLDKELRRASVSLKTLKSKGVNSFSDFYAIDLTSKNGRELCRTLAYKTFEKIIINTDNKTCDIYFMNGIVFKHYPLMKVISAQQAISALKYMVDGEIYF,> 8 h,1.49 h,,,,,1.97 h,,14 h,,,1.41 h
MKYDLIIIGSGSVGAAAGYYATRAGLNVLMTDAHMPPHQHGSHHGDTRLIRHAYGEGEKYVPLVLRAQTLWDELSRHNEEDPIFVRSGVINLGPADSTFLANVAHSAEQWQLNVEKLDAQGIMARWPEIRVPDNYIGLFETDSGFLRSELAIKTWIQLAKEAGCAQLFNCPVTAIRHDDDGVTIETADGEYQAKKAIVCAGTWVKDLLPELPVQPVRKVFAWYQADGRYSVKNKFPAFTGELPNGDQYYGFPAENDALKIGKHNGGQVIHSADERVPFAEVASDGSEAFPFLRNVLPGIGCCLYGAACTYDNSPDEDFIIDTLPGHDNTLLITGLSGHGFKFASVLGEIAADFAQDKKSDFDLTPFRLSRFQ,4.35 ± 1.2 h,3.046 ± 0.022 h,3.23 ± 0.11 h,3.34 ± 0.26 h,3.1 ± 0.046 h,5.49 ± 0.24 h,6.92 ± 1.5 h,3.11 ± 0.23 h,5.46 ± 0.065 h,5.55 ± 0.089 h,10.5 ± 0.16 h,2.99 ± 0.11 h
MQTIIRVEKLAKTFNQHQALHAVDLNIHHGEMVALLGPSGSGKSTLLRHLSGLITGDKSVGSHIELLGRTVQREGRLARDIRKSRAHTGYIFQQFNLVNRLSVLENVLIGALGSTPFWRTCFSWFTGEQKQRALQALTRVGMVHFAHQRVSTLSGGQQQRVAIARALMQQAKVILADEPIASLDPESARIVMDTLRDINQNDGITVVVTLHQVDYALRYCERIVALRQGHVFYDGSSQQFDNERFDHLYRSINRVEENAKAA,,,,,,,,,,0.231 ± 0.32 h,0.931 ± 0.95 h,
MSQNVYQFIDLQRVDPPKKPLKIRKIEFVEIYEPFSEGQAKAQADRCLSCGNPYCEWKCPVHNYIPNWLKLANEGRIFEAAELSHQTNTLPEVCGRVCPQDRLCEGSCTLNDEFGAVTIGNIERYINDKAFEMGWRPDMSGVKQTGKKVAIIGAGPAGLACADVLTRNGVKAVVFDRHPEIGGLLTFGIPAFKLEKEVMTRRREIFTGMGIEFKLNTEVGRDVQLDDLLSDYDAVFLGVGTYQSMRGGLENEDADGVYAALPFLIANTKQLMGFGETRDEPFVSMEGKRVVVLGGGDTAMDCVRTSVRQGAKHVTCAYRRDEENMPGSRREVKNAREEGVEFKFNVQPLGIEVNGNGKVSGVKMVRTEMGEPDAKGRRRAEIVAGSEHIVPADAVIMAFGFRPHNMEWLAKHSVELDSQGRIIAPEGSDNAFQTSNPKIFAGGDIVRGSDLVVTAIAEGRKAADGIMNWLEV,5.1 ± 0.5 h,4.59 ± 0.21 h,4.73 ± 0.05 h,5.25 ± 0.19 h,4.63 ± 0.37 h,4.602 ± 0.032 h,7.68 ± 0.49 h,4.9 ± 0.24 h,7.719 ± 0.058 h,4.54 ± 0.39 h,8.48 ± 0.63 h,2.7 ± 0.04 h
MDNAVDRHVFYISDGTAITAEVLGHAVMSQFPVTISSITLPFVENESRARAVKDQIDAIYHQTGVRPLVFYSIVLPEIRAIILQSEGFCQDIVQALVAPLQQEMKLDPTPIAHRTHGLNPNNLNKYDARIAAIDYTLAHDDGISLRNLDQAQVILLGVSRCGKTPTSLYLAMQFGIRAANYPFIADDMDNLVLPASLKPLQHKLFGLTIDPERLAAIREERRENSRYASLRQCRMEVAEVEALYRKNQIPWINSTNYSVEEIATKILDIMGLSRRMY [P0A8A4],5.48 ± 1.3 h,4.186 ± 0.013 h,4.0273 ± 0.0032 h,4.39 ± 0.15 h,3.98 ± 0.32 h,5.64 ± 0.63 h,9.92 ± 1.4 h,4.1527 ± 0.0038 h,6.76 ± 0.45 h,5.48 ± 0.51 h,10.7 ± 0.8 h,3.15 ± 0.21 h
MKLQNSFRDYTAESALFVRRALVAFLGILLLTGVLIANLYNLQIVRFTDYQTRSNENRIKLVPIAPSRGIIYDRNGIPLALNRTIYQIEMMPEKVDNVQQTLDALRSVVDLTDDDIAAFRKERARSHRFTSIPVKTNLTEVQVARFAVNQYRFPGVEVKGYKRRYYPYGSALTHVIGYVSKINDKDVERLNNDGKLANYAATHDIGKLGIERYYEDVLHGQTGYEEVEVNNRGRVIRQLKEVPPQAGHDIYLTLDLKLQQYIETLLAGSRAAVVVTDPRTGGVLALVSTPSYDPNLFVDGISSKDYSALLNDPNTPLVNRATQGVYPPASTVKPYVAVSALSAGVITRNTTLFDPGWWQLPGSEKRYRDWKKWGHGRLNVTRSLEESADTFFYQVAYDMGIDRLSEWMGKFGYGHYTGIDLAEERSGNMPTREWKQKRFKKPWYQGDTIPVGIGQGYWTATPIQMSKALMILINDGIVKVPHLLMSTAEDGKQVPWVQPHEPPVGDIHSGYWELAKDGMYGVANRPNGTAHKYFASAPYKIAAKSGTAQVFGLKANETYNAHKIAERLRDHKLMTAFAPYNNPQVAVAMILENGGAGPAVGTLMRQILDHIMLGDNNTDLPAENPAVAAAEDH [P0AD65],7.59 ± 0.27 h,6.61 ± 0.79 h,6.75 ± 0.56 h,6.37 ± 0.078 h,5.71 ± 0.077 h,6.92 ± 1.1 h,11.8 ± 0.77 h,6.5 ± 0.79 h,13.4 ± 0.88 h,6.24 ± 0.3 h,13.7 ± 1 h,3.03 ± 0.031 h
